The source of these data is a protein production outcome set (Wang et al. 2014).

The nature of the data set: label from the status in PepcDB records.

As for “MEYILYISRFLYRIRWWLLIGTAIITFAVYYFGKRMIGKTYNVEATLYTGAASGYNLEGGNNKVDWATTQNAMDNLMNIIKAESTLKRVSIRLYARSLIKGNPKEDNEFIKASNYNRIYEHLKNSPNGKEILSLIDKNSEDKTVANFFNYLRPTQANYLYGVFYYNLPYYSYNDLRAIRVARKGASDLIEISYTASDPGIAYNTIDILTKEFVNEYSAIRYGETDKVIEYFKSELQRIGKELRLKEDSLTQYNVEKRVINYYDETKEIAAINKEFELREQNVLIAYNSAKAMLNELEKQMGSNAKHVINNLQFLDKLNEAASLTGKISEMETISSDHQNQEASLQEYKNRLNQTRKELSELSNKYVENKYTKEGIAKENIIEQWLEVTMQYEKAKSDLQIIQQSRIDLNEKYRQFAPVGSTIKRQERNITFIEQNYLSVLKSYNDALMRRKNLEMTSAALKVLNAPAYPISAMPTPLKKMVMAACAGTFLFILGFFLILELLDRTLRDSIRTRRLIGLPMLGAFPKDSILEYHNHVEESKSIATKQLSNSILRFCQQKKEGLPYIINFISTEGGEGKSYVIEALKKYWNSIGLKTKVITWKSDFRIDSREYNLAKSITDLYTSEEEDILIVEYPNLREASISLELLQEANLNILVARADRGWKETDKLLSEKLSQQVGKTPLYVYLTHASRNVVEDYTGMLPPYTLWRKIVYRLSQLALTESIFTFTKRKKQPATSGDEDDE”, the protein production entry is given as “failed”. In the case of “MEYSRDSAEMMMETKRNVYSLEDNKIKRHKSSDLSFSSKERKDKLAERISALQQLVSPYGKTDTASVLLEGMQYIQFLQEQVKVLSAPYLQATPSTTEEEVEEYSLRSKGLCLVPLEYTSEVAQTNGADIWAPVKTPTSSHAFNLSSSNSPFQ”, the protein production result is on record as “failed”. The same measure for “MEYTPFSLILDVGWISGLMIIGNIMRRKIPFFQTLLIPSSITAGIIGMILGPKVLGLIGWSDHLSTYTTVLIAIVFASMPYSMKFDRGVRTGMKTMWAYSTAMFVGQWGLFILLGLFLFQPVWGTDEWFGMMLPVGFVGGFGTAAAVGTALESSGAEAAMSLGFTSATVGTFAAIVGGIIFTTWGIKKGKTAAMPAQLPWDLRSGYIDKLSDRPSIGKASTNPSAIEPLALHTGIILLTVAVAYSINQWLGSMFPTVQIPLFAMSFVVGIVGMGIMRLLKKPEYLDRDTVNSVSGAATDYLIAFGIASIAPAAIADYWVPLVVLFVLGTIYCCFFFFWVAPRFFGEKWLERAIFGWGWATAAVATGIALLKIVDPKLKSGALNEYGVAYIGFAPFEIGMTIIAPIAVLAGFTMGLGWASLIVAIVIFGLAWGLKWLPERGHVRGEGKPQ”: “failed”; for “MFADISAQHWAFAIYVIGAIAICLTMIGLAALLGGRAQGRTKNKPFESGVDSVGTARLRFSAKFYLVAMFFVIFDVEALYLFAWSVSVRESGWVGFIEATIFIGLLLIGLVYLWRIGALEWSPRKPQLNNKNTD”: “failed”. Next, “MFAERRMNVQKKLKIMAARDRNRFRPLFEGDEEVDMLYLNCNVASRPSLSCDGLVCIPIPGWINVLNPSTGEFLRFSSGRDPRLINDFECVDSKFDVFPGFWTMGFGRDNVNGSYKIVRMLFDRHFENRYCQILDVNIGEWRKQRQPPYFVGYREKSACVNGSIYWSQALIRCKLLAFDLYSEEFRDVPTPPRSEICERSCQIVNLEDRLVLAVTYTTSLHWNVKIWSMDAHDGTRSITYSIRLFSKDMNSSIMNHFQLWFWTRPLAVSKRGNLFFHDNEKRL”: “failed”; “MFAHIGEDYVVNSSELLLIMSYDIFMSSEDNLRILESLKNEDRLVVINDDLKKSIIILEIDGRLYAIVSPVSSTTIAKRFLNFNYYVDNYLDESLEHHHHHH”: “not failed”; “MFARFLAQLDFVLTCDRLKTALRTTRLHDGSRLENSAEHSWHLALLALTLAEYAPTGTDVGRVVRLLLMHDLVEIGAGDLSFDAPAEAQAAQQEAEARAAAELFGLLPTDQAAEFLGLWQEFEARQTTEVRFARALDALQPMLLTWGPGAQGCAASHPELTHLRVLGLKEKHLREFPELWAAAQGVMAQAQARGVLQPLEHHHHHH”: “failed”. Next, “MFCVSLILQTLKQPNVHRQVLAIALPMVLSNITVPLLGLVDAAVIGHLEHAWYLGGVALGSTMISVTFWLLGFLRMSTTGLTAQAHGAQNSQQLARVLLQGSVIALGLAALFLLFHRPVAELIFHFSDASSEVKTYAEAYFYIRAWSAPAALLNFVLLGWLLGTQNARAPMWMVIITNLTNIVLDLLLVLGLGLKVEGAAIASVIADYAGLLFGLLCVGRYWRQHQLPAPFSFIPSLTKELSRLVALNRDIFLRSLCLQAVFSFMTFQGAALGDDIVAANAVLMSFLMMISYGMDGFAYAMEAMVGKAIGAKDDRQLRTAMISSTFWATMICLLLSLIFLGFGSDLIQMITNIPSVQATAEHYLPWLVAMPLIAVWCFLLDGVFIGATKGKEMRNSMAVSAVAFFAIYGFMTHYGNHALWLAMLSFMALRGFTLGATFYTQWRAGTFLPARFSI”: “failed”. On to “MFDLSSIVDNEQTSDALEDVVMGLIINAGQARSLAYNALKQAKAGDFAQADELMAQSRSALNDAHLVQTQLIEADQGEGKTKVTLVLVHAQDHLMNAMLARELITELIELHQKIQ”, for which the protein production entry is given as “failed”. The same measure for “MFEQIIAILFPVMSLVLIGYLIGLWLKPDFRPINRINMEAFVPALVFSSLVNMPLDTQQTPLLLAALVAVLLPGILMLLICRLGRWSFKTWAPLHMFRNSGNLAIPLFTYAFGETALPSAVLLFVVSMCLHISLGVAMLSKGSVLKTVLSAPVFLASSLALLLNLSGVSIWSPLYNATALLGQAAVPVMLLSLGSQMINLRLAGLKVGLVSTAQSLLTGACAFTVIYFFIPLPPLQLQMMVLFTMLPPAVMNYLFAERYHIEPTQVAAMVLFGNFFSLLSLPILLFIALSL”: “failed”. The same measure for “MFESLGFEETTAKEISVLLGLSLGVLFGLLAERTRFCFRRAVVGEDARQAAGVWFTALAVAILGTQASVASGLIGFADHRLLSSDLPVLAVVLGGLMFGAGMVLTRGCISRLTVLGGTGNLRALTVLLVFAVVAHAMLKGVLAPLRTSLGAVTVDLGETVSLAALPGGAALWTALLALASLLIAARSGNRALPLLGAALIGLLVPLGWVGTGYVLFDEFDPITMESLSFTAPAADTLFYTIASTSIAPGFGTGLVGGVLLGALAAALLFGSFRWQSFDSPRQTGRYLAGATLMGMGGVLAGGCTLGAGLAGIPTLSLAALLALTAIALGARLTDAALNAASSGSAGYPATPGQQPAE”: “failed”. The same measure for “MFFSEARARSRTWEASPSEHRKWVEVFKACDEDHKGYLSREDFKTAVVMLFGYKPSKIEVDSVMSSINPNTSGILLEGFLNIVRKKKEAQRYRNEVRHIFTAFDTYYRGFLTLEDFKKAFRQVAPKLPERTVLEVFREVDRDSDGHVSFRDFEYALNYGQKEA”: “failed”; for “MFGYRSNVPKVRLTTDRLVVRLVHDRDAWRLADYYAENRHFLKPWEPVRDESHCYPSGWQARLGMINEFHKQGSAFYFGLFDPDEKEIIGVANFSNVVRGSFHACYLGYSIGQKWQGKGLMFEALSAAIRYMQRTQHIHRIMANYMPHNKRSGDLLARLGFEKEGYAKDYLLIDGQWRDHVLTALTTPDWTPGR”: “failed”. On to “MFIAIHSQSFFSPEMDMVASRDRRPPPATIRREPFQLIRIKAAGLAAEGVNAMTSVFTRSAVACAIALAAAAISQAGAQGLKKYESGTKEFWTNPPPDWFLGDETEAQKGLAPPAGPPTGSSDAELAAMIKKIKLPPGFKIEVYASGVLSARQMAWGDNGTLFVGSFGVGSVYAITDKDGKKQVKTILKGLKMPTGLAFRDGALYVVDIDKLIRYDNAEANLDNLGSGKVVYDDMPSYVAHGWKYLAADKDGWFYVPFGPPFNIGIPPTSVSQIRRVDPKTGNAEIVALGVRNSVGGDVDPRSGKYWFTENARDWISDDMPSDKLNMISKLGEHFGYPYCHQGDMPDPKFAMGHKCSEFTPPVLNLGAHVAPLGMKFYTGDQFPAEYKNNIFIAEHGSWNRHKYQGGLIKRVIADPDGKNAKQEDFATGWIEGDQGYLGRPADIVLAKDGSMLVADDWAGAIYRISYSK”, for which the protein production result was “failed”. The same measure for “MFIERMTNLAQGLVVAAVHAGSIAEEMEIECGDQILAIDGQEIGDIIDFQYLTAEDEFTLLLEKAGGELWELEIERSYGEELGLEVQAVSSHGLKLCRNNCIFCFVAQMPPGMRASLYDKDDDYRLSLTQGSFITLSNLDEDEFERILKFHFSPLYISVHAWDAEARVRLMKNPRAGDLSSQLKRLAGAGIQIHSQIVLVPGYNDGEVLEQTVRELGNLHPSVQSIAVVPVGLTKHRANLPDLRPFTPEEAWSILAKGEMWQKEYRRKTGRSLVYFSDEFYASAGRDYPSIEIYDDFAQLENGVGMASKFRQEFDYALQSLPPAIPQRKVHLITGVSAAPFFEDLLKKLTPIEGLTVQRHTIINSFFGPTVTVAGLLTAQDIAGQIGNIKGEIFLIPRVMLKADEEVFLDDRSVEWLAEELQGIPLVVENQGRAFLEAVTGLDLEGEDCE”: “failed”.

On to “MFISDKSRPTDFYKDDHHNSSTTSTTRDMMIDVLTTTNESVDLQSHHHHNHHNHHLHQSQPQQQILLGESSGEDHEVKAPKKRAETWVQDETRSLIMFRRGMDGLFNTSKSNKHLWEQISSKMREKGFDRSPTMCTDKWRNLLKEFKKAKHHDRGNGSAKMSYYKEIEDILRERSKKVTPPQYNKSPNTPPTSAKVDSFMQFTDKGFDDTSISFGSVEANGRPALNLERRLDHDGHPLAITTAVDAVAANGVTPWNWRETPGNGDDSHGQPFGGRVITVKFGDYTRRIGVDGSAEAIKEVIRSAFGLRTRRAFWLEDEDQIIRCLDRDMPLGNYLLRLDDVCKTHLAGLAIRVCHYDESNQLPVHSEEKIFYTEEDYREFLARQGWSSLQVDGFRNIENMDDLQPGAVYRGVR”, for which the protein production result is “failed”. In the case of “MFKAPFSFDGRIRRIEYFLSGIIGGIVFGVAYSLGLATLFLGAAAGSAGGSLFGILIGIVAGIASIWFSLAQGVKRLHDLNKSGWLILICCVPIIGWVFSLYMLFADGTVGPNQYGEDPKNRMPYQPQPTSVNVTVNVSRETPAEAPAEEEKTEKAE”, the protein production result is reported as “failed”. Turning to “MFKPQGLYDYICQQWQEEILPSLCDYIKIPNKSPHFDAKWEEHGYMEQAVNHIANWCKSHAPKGMTLEIVRLKNRTPLLFMEIPGQIDDTVLLYGHLDKQPEMSGWSDDLHPWKPVLKNGLLYGRGGADDGYSAYASLTAIRALEQQGLPYPRCILIIEACEESGSYDLPFYIELLKERIGKPSLVICLDSGAGNYEQLWMTTSLRGNLVGKLTVELINEGVHSGSASGIVADSFRVARQLISRIEDENTGEIKLPQLYCDIPDERIKQAKQCAEILGEQVYSEFPWIDSAKPVIQDKQQLILNRTWRPALTVTGADGFPAIADAGNVMRPVTSLKLSMRLPPLVDPEAASVAMEKALTQNPPYNAKVDFKIQNGGSKGWNAPLLSDWLAKAASEASMTYYDKPAAYMGEGGTIPFMSMLGEQFPKAQFMITGVLGPHSNAHGPNEFLHLDMVKKLTSCVSYVLYSFSQKK”, the protein production entry is given as “not failed”. With “MFKRCFSPLTLVNQLALIVMLSTAIGVAGMAVSGWLVQGVQGSAHAINKAGSLRMQSYRLLAAVPLDAKDQKLLDEMEQTAFSPELTRAAERDGQQKQLKALQDYWHNELSPRLQHAQNAHAVAEDITRFVAGLDRLVTSFDHTTELRIERVVLVHRVMAIFMALLLVFTIIWLRVRLLQPWKQLLSMARAVSQRDFTQRANISGRNEMAALGSALNNMSEELAESYAVLEQRVQEKTAGLEHKNQILSFLWQANRRLHSQAPLCERLSPVLNGLQNLTQLHDIELRVYDLEDEDNHQEFTCQSDISCDDKGCHLCPRSALPMINGGTTLKWRLTDSHTQYGILLATLPYGRHLSHDQQQLVDTLVEQLTATLALDRHQERQQRLIVMEERATIARELHDSIAQSLSCMKMQVSCLQMQGDALPESSRELLSQIRNELNCSWAQLRELLTTFRLQLTEPGLRPALEASCQEFSARFGFTVKLDYQLPPRLVPSHQAIHLLQIAREAPSNALKHSHADDVVVTVTQCGKQVKLKVQDNGCGVPENAERSNHYGMIIMRDRAQSLRGDCQVRRRETGGTEVTVTFIPETNFTETQGDTHE”, the protein production result was “failed”.
